The text below walks through data of patent publication US20250129143A1.

Assay [1] deals with K27 (human). The assay can be described thus: immunoprecipitation from HCT-116 cell extract; gel region of 62 kDa or more; quantitative mass spectrometry with stable isotope-labeled peptides [panel A].
In assay [2] the target is K29 (human). The description is as above.
Assay [3] deals with K6 (human). The description is as above.
Assay [4] concerns the target M1 (human). The assay is described as above.
Assay [5] concerns the target K63 (human). The description is as above.
In assay [6] the target is polyubiquitinated substrates (HCT-116 cell extract). The description is as above.
Assay [7] deals with K11 (human). Described as above.
Assay [8] concerns the target K33 (human). Described as above.
The target in assay [9] is K48 (human). Described as above.
Assay [10] deals with K27 (human). The assay can be described thus: immunoprecipitation from HCT-116 cell extract; quantitative mass spectrometry; pie chart [panel B].
Assay [11] concerns the target K29 (human). The description is as above.
Assay [12] has as its target K6 (human). The assay is described as above.
In assay [13] the target is M1 (human). The description is as above.
The target of assay [14] is K63 (human). Described as above.
Assay [15] concerns the target K11 (human). Described as above.
The target in assay [16] is K33 (human). Described as above.
The target in assay [17] is K48 (human). The description is as above.
The target in assay [18] is polyubiquitinated substrates (HCT-116 cell extract). In words: immunoprecipitation (Halo tag-fused wild-type monobody) from HCT-116 cell extract; gel region of 62 kDa or more; quantitative mass spectrometry with stable isotope-labeled peptides [panel A].

In turn, Control IgG (antibody) registered a K27 chain-derived peptide in the immunoprecipitate with K27 (human) [1] of 0.03 fmol. In addition, the K29 chain-derived peptide in the immunoprecipitate in the assay with K29 (human) [2] came out at 0 fmol. The K6 chain-derived peptide in the immunoprecipitate in the assay with K6 (human) [3] stood at 0 fmol. Besides, in the assay with M1 (human) [4], the M1 chain-derived peptide in the immunoprecipitate came out at 0 fmol. For the same substance, in the assay with K63 (human) [5], the K63 chain-derived peptide in the immunoprecipitate turned out to be 0 fmol. Also, in assay [6], the EST peptide (…) in the immunoprecipitate amounted to 0.19 fmol and the total ubiquitin in the immunoprecipitate (EST + K63 peptides) turned out to be 0.19 fmol. In the assay with K11 (human) [7], this substance yielded a K11 chain-derived peptide in the immunoprecipitate of 0.02 fmol. The substance also displayed a K33 chain-derived peptide in the immunoprecipitate with K33 (human) [8] of 0 fmol. This substance yielded a K48 chain-derived peptide in the immunoprecipitate in the assay with K48 (human) [9] of 0.04 fmol.
With “anti-polyubiquitin monoclonal antibody FK2 (0918-2, Nippon Bio-Test)”, the percentage of this chain among the 8 ubiquitin chain-derived peptides in the immunoprecipitate (control subtracted) with K27 (human) [10] is 0%; with K29 (human) [11], 8%; with K6 (human) [12], 5%; with M1 (human) [13], 0%; with K63 (human) [14], 20%; in the assay with K11 (human) [15], 7%. The figures for the percentage of this chain among the 8 ubiquitin chain-derived peptides in the immunoprecipitate (control subtracted) in the assay with K33 (human) [16] and with K48 (human) [17] were 0% and 60%, respectively. For the same substance, the K27 chain-derived peptide in the immunoprecipitate in the assay with K27 (human) [1] was determined as 0.11 fmol. Further, the K29 chain-derived peptide in the immunoprecipitate in the assay with K29 (human) [2] was found to be 3.69 fmol. The substance also displayed a K6 chain-derived peptide in the immunoprecipitate in the assay with K6 (human) [3] of 2.15 fmol. Also, the M1 chain-derived peptide in the immunoprecipitate in the assay with M1 (human) [4] was found to be 0.02 fmol. In the assay with K63 (human) [5], this substance registered a K63 chain-derived peptide in the immunoprecipitate of 9.59 fmol. The same substance returned an EST peptide (…) in the immunoprecipitate in assay [6] of 106 fmol. In addition, the total ubiquitin in the immunoprecipitate (EST + K63 peptides) in assay [6] was 116 fmol. This substance yielded a K11 chain-derived peptide in the immunoprecipitate with K11 (human) [7] of 3.62 fmol. Also, the K33 chain-derived peptide in the immunoprecipitate with K33 (human) [8] was 0.2 fmol. The same substance gave a K48 chain-derived peptide in the immunoprecipitate with K48 (human) [9] of 29.1 fmol.
As for “anti-ubiquitin antibody P4D1 (sc-8017, Santa Cruz)”, the percentage of this chain among the 8 ubiquitin chain-derived peptides in the immunoprecipitate (control subtracted) with K27 (human) [10] stood at 0%; with K29 (human) [11], 43%; with K6 (human) [12], 3%; with M1 (human) [13], 0%; in the assay with K63 (human) [14] it was 5%; with K11 (human) [15], 3%. Moreover, the percentage of this chain among the 8 ubiquitin chain-derived peptides in the immunoprecipitate (control subtracted) with K33 (human) [16] turned out to be 0%; with K48 (human) [17], 46%. Further, in the assay with K27 (human) [1], the K27 chain-derived peptide in the immunoprecipitate worked out at 0.08 fmol. Besides, in the assay with K29 (human) [2], the K29 chain-derived peptide in the immunoprecipitate amounted to 20.1 fmol. Moreover, in the assay with K6 (human) [3], the K6 chain-derived peptide in the immunoprecipitate came to 1.32 fmol. This substance registered an M1 chain-derived peptide in the immunoprecipitate with M1 (human) [4] of 0 fmol. The K63 chain-derived peptide in the immunoprecipitate with K63 (human) [5] came out at 2.47 fmol. In addition, the EST peptide (…) in the immunoprecipitate in [6] was found to be 72.1 fmol. Also, the total ubiquitin in the immunoprecipitate (EST + K63 peptides) in assay [6] turned out to be 74.5 fmol. The substance further gave a K11 chain-derived peptide in the immunoprecipitate with K11 (human) [7] of 1.65 fmol. In the assay with K33 (human) [8], the K33 chain-derived peptide in the immunoprecipitate was found to be 0.11 fmol. The substance further had a K48 chain-derived peptide in the immunoprecipitate in the assay with K48 (human) [9] of 21.8 fmol.
“wild-type Monobody (FN3) (designed binder)”: in [18], the EST peptide (…) in the immunoprecipitate was 12.3 fmol and the total ubiquitin in the immunoprecipitate (EST + K63 peptides) was 13 fmol.
